# Test results taken from the DeepSol protein solubility set.
# Assay: soluble on expression in E. coli; label from the status in PepcDB or PDB records
row,Sequence,soluble on expression in E. coli
1,MVRVEDSNGADTDTNPEGESSGYVRLAGNGLPGGEQQQASSSGVAAAPSVDSSPGRSVPLAIASSSSPANVANNQYAIPVDENGHRYVGLVNQAMTCYLNSLVQSLYMTPEFRNAMYDWEYVQQPAHIKEQRKKAEQSIPCQLQKLFLLLQTSENDSLETKDLTQSFGWTSNEAYDQHDVQELCRLMFDALEHKWKGTEHEKLIQDLYRGTMEDFVACLKCGRESVKTDYFLDLPLAVKPFGAIHAYKSVEEALTAFVQPELLDGSNQYMCENCKSKQDAHKGLRITQFPYLLTIQLKRFDFDYNTMHRIKLNDKMTFPDVLDLNDYVNKEKRSTTSSAWQQIGKNKSENEEDDMELGSPNPKRCTPGVQSPNRYQGSENVCVGQPIDHAAVDDIVKTSGDNVYELFSVMVHSGNAAGGHYFAYIKNLDQDRWYVFNDTRVDFATPLEIEKSFGGHPSGWNQSNTNAYMLMYRRIDPKRNARFILSNQLPQHIKDSQEKWKRLEREAEDERLRKLSLIQVYVTINYPFPSVVTLPDKKQLDLTPQKYQIAEDFGEYKTEISREMPIKNVFNHAFEFFNERARAYNLPFTKNSARLIYVEHGSLMMDFKSKADMDKKLRSVFNVNHGEPGSMYGVHFILDVRIASSFFPVDIKNKITIKVQRVDIGKKTTANELIVVVDANEKMIKVKSWIGGQFRDDIHGVLNARVVLEVASSRCEFMMIDVSHNATEFGSLIQQYVGHTTPTLYYDGGLNTMVTKESQEATLADRKLPFDKSVMYHILDRKCFSTMVKVRLPSQEEIEKAASTKNAYQGPTWAETIAIMKEEDRLWNEPRAAVEVMSTVSRTDTTDHALVADTDDEPIPSGRGSTASMRSVSMDDIDADIGISGSLCNNTPQMSPCVSEGDDADESQLDGKSQLMSDYMQKTSPDFYYNRDPQNHLNKNLKIALGDETPSESLSAVSSGQSTLVPSTSNQALSSMTRSDEAVDGKIVTVFSHENFHKLDVDSRMRVLEFKKWVAEQLEMDKDQFVIVKHASDDGSDSGYEANFMDDETVSGAFQSCFISIKLRAPLKSDEKMMQIILFDILENLRENWKPLFELPVSQSTVIGDVLLQCLRMYKEVYGEELTPKMVRLRELGGSGVGTGRAVLNPNDTLEKRSYNWCSHLYLQIITDEAMIGKPGEPIMVRRFRPSTVEVNPTHEVLVDANAENPVVSFVEALSKISGIPVERLAITDLKEFNWQKWPYLKSRLDMLENKVNFTKDLQVTYPLPREFLDKVGSRVLYYKDSDEEAKVLSEDERKQIKIKENGQSANANRRKERPLRIQMSSVCEA,not soluble
2,MVSKIRTFGWVQNPGKFENLKRVVQVFDRNSKVHNEVKNIKIPTLVKESKIQKELVAIMNQHDLIYTYKELVGTGTSIRSEAPCDAIIQATIADQGNKKGYIDNWSSDGFLRWAHALGFIEYINKSDSFVITDVGLAYSKSADGSAIEKEILIEAISSYPPAIRILTLLEDGQHLTKFDLGKNLGFSGESGFTSLPEGILLDTLANAMPKDKGEIRNNWEGSSDKYARMIGGWLDKLGLVKQGKKEFIIPTLGKPDNKEFISHAFKITGEGLKVLRRAKGSTKFTRVPKRVYWEMLATNLTDKEYVRTRRALILEILIKAGSLKIEQIQDNLKKLGFDEVIETIENDIKGLINTGIFIEIKGRFYQLKDHILQFVIPNRLGKPDLVKSELEEKKSELRHKLKYVPHEYIELIEIARNSTQDRILEMKVMEFFMKVYGYRGKHLGGSRKPDGAIYTVGSPIDYGVIVDTKAYSGGYNLPIGQADEMQRYVEENQTRNKHINPNEWWKVYPSSVTEFKFLFVSGHFKGNYKAQLTRLNHITNCNGAVLSVEELLIGGEMIKAGTLTLEEVRRKFNNGEINF,soluble
3,MVSSSVARGLEDAGLKRFVPAFSGVSDQAFLGLMMSDYASYGVVELEDKQRLFRLIKSIAASVKSSDAPAPALEKPNALIDLDENDGDLLADAGVNFQLSPLANQNPKAPVPSGGGGVPPSEGEDPPKIRVVVRKRPISKKERERGDDDVVDVLAKNNTVVVNEEKVKVDLTKYLEKHAFKFDESLDENVSNEAVYQLTVGPLVRTLFRNGRASCFAYGQTGSGKTYTMSPLPIRASADIFTFMAQQQYRDISLCVSCFEIYGNKVFDLLNARKKLNILEDGKKKVVVVGLKEFGVDDVDGVKALIEESAKNRSTGSTAANADSSRSHSIMQFALKRAAPAPAGGFRRGEDAPEPRVVGKISFIDLAGSERGADTFDNNRQTRLEGAEINKSLLALKECIRALDSDARHVPFRGSKLTAVLRDSFVGDQARTVMIANISPCSSSVEHTLNTLRYADRVKELRKDKADRTPGGVTPGDDAYYAAVARAAGPGQAAAPAPERERERADLQRERDRERASDRYPSPPRQQAGAFAGGGGGGAGADGEGSAAALAERHDELMDSILLEEENLVAFHRAKLEEDMETMRQEMALLQEVDKPGSEIDHYVEQMSALLNIKRQGIQELQAKLDTFKAKLREEEALSRTVHKIRT,not soluble
4,MVTEDVRATADDIADMEIRGAATIARAAADALESQATDSDADSPAAFRAELRAAARHLRDTRPTAVSLPNALRYVLGNTDGETVAALRASVTDAADAFRQQLDRAQDDLGAIGANRLRDGDTVMTHCHSTDALACVKAALDDGKHIEAVVKETRPRKQGHITADQLREWGVPVTLIVDNAGRRYLDAVDHVLVGADSIAADGSVINKIGTSMLAVVARERGVPVMVAAQTLKLHPDTLTGNTVEIEMRDETEVLAAADRHQLGAPDVENPAFDVTPPRYVDAIVTERGQFPPESIVTLMRELYGDGTTEPWAEDLEHHHHHH,not soluble
5,MVTGLICFTGCSDDFLKDKKVYGSYDASVVYENYETAKSRVDFLYQSLLPSSTGGSNALTDITSAGIDDDFSKCTEEYGDYSIFNDPTASLTIQTVPDYFYVINSERSPWGRIRECNNVIEGVTGSATLSQTEKEQLLGQAYFFRAWRYYLLVKMYGGVPIVDHVQNPVIGDGNGENLVIPRSSTKACIDFICDDLELAASYLPARWQNEGQDYGRITAGAALALKGRTLLLYASPLFNRADDASRWKDAYDANFAAITKLNEGNFGLAYEGNGGEDNAKNWARMFATYTGGSEAVFVTLYNNVSPIASQNINRYNLWEQGIRPGNINGGGGKTPTAEIIDIFPMIDGKKPMESGVHYDPKKFFLNRDPRFYRTFAFPGVEWKFNSGNVDFSGATMSGLCPTRYTSGANYELWNYCWYTTADERNNPSRSGFAADMLGTKNRGVYVRKRSDDFDLGTSLYVFTDNSSGDQQGFRRSAAPYMEIRYAEVLLNLAESACGAGGTYHAEGVKALKAVRGRVGYTSANNYGLDAAIETDRAKLFEAILYERQVELAFEGKRAYDMRRWMLFDGGVGQGALNASWALSGFGGNTCTYLGVTPMNERGKRYRIEINVEGTGSANNDSDPIKNVERPAALTLNEKIATEADGETILDPAVSSICTFYDTYFSRKDISLDGNVLDINPYFQPRYYFFGLRQSAQQTNATLYQTIGWEDYAHGGMGTFDPLAE,not soluble
6,MVTPIAVVGPTASGKSALGIALAHKLDGEVVNVDSMQLYKGMDIGTAKLTVEEREGIAHHQLDVWDVTETASVARFQSDAVADVEDIMSRGKTPILVGGSMLYVQSLVDDWQFPPTDSAVRARFEARLADIGVEALHAELTQLDPEAAAVIESNDPRRTVRALEVIELTGQPFQASQPPKDAPPRWGTRIIGLKTTPEWLNPRIEQRTARMFEQGFVAEVEHLVQQGLIADSTAGRAIGYSQVLAAMAGEMTWEDAFERTVTGTRRYVRRQRSWFNRDHRVSWVDASGDPTAQALEILGLQLEHHHHHH,soluble
7,MVTQNKKILIITGSFGNGHMQVTQSIVNQLNEMNLNHLSVIQHDLFMEAHPIMTSICKKWYINSFKYFRNTYKRFYYSRPNELDKCFYKYYGLNKLINLLIKEKPDLILLTFPTPVMSVLTEQFNINIPIATVMTDYRMHKNWITPYSQRYYVATKDTKDDFIEAGVPASYIKVTGIPIADKFEESIDKEEWLSQQHLDPSKPTILMSAGAFGVSKGFDYMINNILEKSPNSQVVMICGRSKELKRSLKAKFKDNPSVKILGYTNHMNEWMASSQLMITKPGGITISEGLSRCIPMIFLNPAPGQELENAYYFESKGFGKIADTPNEAIDIVSDLTNNEETLKVMSSKMLESKVGYSTRKICKDLLDLIGHSSQPDEIYGKVPLYARFFVKLEHHHHHH,soluble
8,MVTVAVPKERAPGERRVALVPEVVARLVKGGARVRVERGAGEGAYHPDEAYQEAGAEVVERGELLKGAHLLFTVQPPPEDLIQALEPGAIVVGFVQPHKNLELVRALQAKKATVIAMELIPRITRAQSMDALSSQATVAGYLAAIHAARLSPRFFPMLTTAAGTIRPAKVMVMGVGVAGLMAIATAKRLGAQVFAYDVRKAALEQALSLGAKPIELPISAEGEGGYARELTEEEKRIQHEALRDHVAGMDVLITTAQVPGRRAPILLTEDMVERLKPGTVVVDLAAESGGNCVLTKPGEVVEVRGVRVYGPLNLPSELSVHASEMYAKNLYNLSSLLIEKGAFAPKWEDEIVRAALLMKEGEVLHGPTKALLGGA,soluble
9,MVVLKVTLLEGRPPEKKRELVRRLTEMASRLLGEPYEEVRVILYEVRRDQWAAGGVLFSDKEGT,soluble
10,MVVVRLPKEIEERLTALARKTGRSKSYYVRQALLEYLDDLEDYYLAVERLEERLPGIPLDEVERRLGLSD,soluble
11,MVVVYVVKIGGSLTNNAVNLLENLKKLGEKVVIIPGGGNFANVVRNLHENEKINDISAHKLATMCTDITGTYFSEISGIKTADNLFDAKRILQNESIVIILPSNIILSTDELPCSWEVTSDSFAAYIAKLLNSKTLIIATDVDGIYDKYPEGKLLNTINTKTIKGFTSVDKHLPKLISEYGIKCFVVNGNHPERINNIFKGVVDTYTKITLKLEHHHHHH,not soluble
12,MVWMVELKEPFATLWRGKDPFEEVKTLQGEVFRELETRRTLRFEMAGKSYFLKWHRGTTLKEIIKNLLSLRMPVLGADREWNAIHRLRDVGVDTMYGVAFGEKGMNPLTRTSFIITEDLTPTISLEDYCADWATNPPDVRVKRMLIKRVATMVRDMHAAGINHRDCYICHFLLHLPFSGKEEELKISVIDLHRAQLRTRVPGRWRDKDLIGLYFSSMNIGLTQRDIWRFMKVYFAAPLKDILKQEQGLLSQAEAKATKIRERTIRKSL,not soluble
13,MVYPIRLYGDPVLRRKARPVEDFSGIKRLAEDMLETMFEAKGVGLAAPQIGLSQRLFVAVEYADEPEGEEERPLRELVRRVYVVANPVITYREGLVEGTEGCLSLPGLYSEEVPRAERIRVEYQDEEGRGRVLELEGYMARVFQHEIDHLDGILFFERLPKPKREAFLEANRAELVRFQKEARALLKELSQG,soluble
14,MWELAEVQEPEAWNRLVSGFAITSPLQSWGWGEVKRTTGWEPRRFLLLGGEGPVAAAQVLLKAAPGGLRLAYAPRGPALHRLEDLPEVARALGRALRATHLVLEPEAGLPAHLPAPRFPGLLLEEPIQPAHSLWLDLTQGEEALLKGMKEMHRRNARLALKRVALSVEGEEAFAEFYRLFTETNRRARLLQHDEAYYRAVLKEMNQPLGEAFLALARKDGEALAAGLFVAFAGKVAYLYGGSTRKHPEAKAPMGMHLAAIRHGMARGYRVYDLWGIPKNPRGSHAEGIHRFKEGFGGQRVQFPAYVLPLSPLYRPLGLLLRLRKTWVNLRVRGNPRDVLG,soluble
15,MWGQTNMADKKSPLIAVSVGEASGDLLGAHLIRAIRKRCPQARFTGIGGELMKAEGFESLYDQERLAVRGFVEVVRRLPEILRIRRGLVRDLLSLKPDVFVGIDAPDFNLGVAEKLKRSGIPTVHYVSPSVWAWRRERVGKIVHQVNRVLCLFPMEPQLYLDAGGRAEFVGHPMAQLMPLEDDRETARQTLGVDAGIPVFALLPGSRVSEIDYMAPVFFQTALLLLERYPAARFLLPAATEATKRRLAEVLQRPEFAGLPLTVIDRQSETVCRAADAVLVTSGTATLEVALCKRPMVISYKISPLTYAYVKRKIKVPHVGLPNILLGKEAVPELLQSEAKPEKLAAALADWYEHPDKVAALQQDFRALHLLLKKDTADLAARAVLEEAGC,not soluble
16,MWGWKAVGIKIDPSVSLEQAREIIKEAGFQEYVVNPEYIIFKQTGTQLTIKGEELPIEVVIGSAESGIFLQARYDTFVLFDSGDLAKLADELVFKLSV,not soluble
